The supplement of paper PMC10065799, “High-throughput profiling of sequence recognition by tyrosine kinases and SH2 domains using bacterial peptide display” (eLife, 2023)

Columns and labels:
Hck = Hck (UniProt P08631); assay: phosphorylation enrichment, bacterial display (enrichment ratio); higher = better substrate or ligand; peptides without Tyr show the background
Fer (mouse) = assay: as above
AncSZ = assay: as above
c-Src = assay: as above
FGFR1 = FGFR1 (UniProt P11362); assay: as above
Fyn = Fyn (UniProt P06241); assay: as above
Sequence of Fyn (P06241 whole entry, looked up): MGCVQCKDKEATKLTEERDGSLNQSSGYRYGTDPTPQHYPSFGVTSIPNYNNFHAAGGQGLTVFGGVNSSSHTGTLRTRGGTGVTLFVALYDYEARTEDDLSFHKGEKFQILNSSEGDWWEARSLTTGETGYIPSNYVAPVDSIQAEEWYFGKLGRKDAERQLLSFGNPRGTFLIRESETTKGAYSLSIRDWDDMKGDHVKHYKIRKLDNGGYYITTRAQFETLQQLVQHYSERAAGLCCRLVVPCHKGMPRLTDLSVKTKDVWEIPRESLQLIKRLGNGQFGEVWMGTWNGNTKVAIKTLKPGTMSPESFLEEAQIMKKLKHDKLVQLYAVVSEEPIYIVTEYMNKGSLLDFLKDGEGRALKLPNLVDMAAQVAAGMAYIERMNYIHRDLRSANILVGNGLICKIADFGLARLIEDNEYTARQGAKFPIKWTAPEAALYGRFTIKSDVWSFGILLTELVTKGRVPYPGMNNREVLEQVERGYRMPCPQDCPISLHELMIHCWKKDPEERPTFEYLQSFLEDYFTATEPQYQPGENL

c-Abl (mouse) = assay: as above
EPHB1 = EPHB1 (UniProt P54762); assay: as above
FGFR3 = FGFR3 (UniProt P22607); assay: as above
Sequence of FGFR3 (P22607 whole entry, looked up): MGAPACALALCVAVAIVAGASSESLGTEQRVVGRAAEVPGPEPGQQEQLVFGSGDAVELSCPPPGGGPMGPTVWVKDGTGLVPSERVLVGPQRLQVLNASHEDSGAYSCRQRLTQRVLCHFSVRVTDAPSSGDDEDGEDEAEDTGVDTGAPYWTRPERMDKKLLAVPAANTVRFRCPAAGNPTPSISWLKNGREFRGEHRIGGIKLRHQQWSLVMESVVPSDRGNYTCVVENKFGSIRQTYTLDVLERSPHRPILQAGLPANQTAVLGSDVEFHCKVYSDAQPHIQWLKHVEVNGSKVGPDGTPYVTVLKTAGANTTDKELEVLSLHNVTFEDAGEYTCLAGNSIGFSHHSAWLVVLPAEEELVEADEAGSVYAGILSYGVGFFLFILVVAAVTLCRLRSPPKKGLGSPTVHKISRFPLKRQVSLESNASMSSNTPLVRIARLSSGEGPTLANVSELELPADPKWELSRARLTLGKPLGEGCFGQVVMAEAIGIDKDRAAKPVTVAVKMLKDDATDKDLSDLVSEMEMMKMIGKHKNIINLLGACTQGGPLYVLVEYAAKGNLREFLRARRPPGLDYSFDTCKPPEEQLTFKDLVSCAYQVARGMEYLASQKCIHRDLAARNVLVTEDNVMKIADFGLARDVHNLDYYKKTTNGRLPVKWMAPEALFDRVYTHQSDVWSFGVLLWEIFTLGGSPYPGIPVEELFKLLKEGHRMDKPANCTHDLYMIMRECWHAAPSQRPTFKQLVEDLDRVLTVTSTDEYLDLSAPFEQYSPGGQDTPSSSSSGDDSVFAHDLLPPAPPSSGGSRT

MERTK = MERTK (UniProt Q12866); assay: as above
Fes = Fes (UniProt P07332); assay: as above
Sequence of Fes (P07332 whole entry, looked up): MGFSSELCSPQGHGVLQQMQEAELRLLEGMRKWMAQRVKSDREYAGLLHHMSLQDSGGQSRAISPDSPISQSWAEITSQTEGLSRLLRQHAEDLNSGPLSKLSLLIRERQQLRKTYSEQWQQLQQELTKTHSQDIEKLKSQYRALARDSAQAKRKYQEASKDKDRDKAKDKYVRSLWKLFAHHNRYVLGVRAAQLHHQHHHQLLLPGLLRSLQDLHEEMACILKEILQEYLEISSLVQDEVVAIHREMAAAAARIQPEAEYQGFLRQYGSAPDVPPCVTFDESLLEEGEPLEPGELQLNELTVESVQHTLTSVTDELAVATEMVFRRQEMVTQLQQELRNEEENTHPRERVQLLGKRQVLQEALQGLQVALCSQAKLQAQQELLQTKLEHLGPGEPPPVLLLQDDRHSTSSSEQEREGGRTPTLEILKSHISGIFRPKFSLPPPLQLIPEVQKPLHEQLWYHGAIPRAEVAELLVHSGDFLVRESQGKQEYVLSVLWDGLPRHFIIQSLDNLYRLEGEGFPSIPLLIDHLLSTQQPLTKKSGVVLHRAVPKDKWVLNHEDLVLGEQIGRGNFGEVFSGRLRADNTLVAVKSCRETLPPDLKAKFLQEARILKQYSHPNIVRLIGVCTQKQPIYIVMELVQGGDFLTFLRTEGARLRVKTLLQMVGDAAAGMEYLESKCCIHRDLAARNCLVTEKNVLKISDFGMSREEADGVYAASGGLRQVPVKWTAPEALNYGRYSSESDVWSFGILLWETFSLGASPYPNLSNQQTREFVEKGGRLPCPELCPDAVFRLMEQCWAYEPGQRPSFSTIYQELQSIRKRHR

Jak2 = Jak2 (UniProt O60674); assay: as above
Sequence of Jak2 (O60674 whole entry, looked up): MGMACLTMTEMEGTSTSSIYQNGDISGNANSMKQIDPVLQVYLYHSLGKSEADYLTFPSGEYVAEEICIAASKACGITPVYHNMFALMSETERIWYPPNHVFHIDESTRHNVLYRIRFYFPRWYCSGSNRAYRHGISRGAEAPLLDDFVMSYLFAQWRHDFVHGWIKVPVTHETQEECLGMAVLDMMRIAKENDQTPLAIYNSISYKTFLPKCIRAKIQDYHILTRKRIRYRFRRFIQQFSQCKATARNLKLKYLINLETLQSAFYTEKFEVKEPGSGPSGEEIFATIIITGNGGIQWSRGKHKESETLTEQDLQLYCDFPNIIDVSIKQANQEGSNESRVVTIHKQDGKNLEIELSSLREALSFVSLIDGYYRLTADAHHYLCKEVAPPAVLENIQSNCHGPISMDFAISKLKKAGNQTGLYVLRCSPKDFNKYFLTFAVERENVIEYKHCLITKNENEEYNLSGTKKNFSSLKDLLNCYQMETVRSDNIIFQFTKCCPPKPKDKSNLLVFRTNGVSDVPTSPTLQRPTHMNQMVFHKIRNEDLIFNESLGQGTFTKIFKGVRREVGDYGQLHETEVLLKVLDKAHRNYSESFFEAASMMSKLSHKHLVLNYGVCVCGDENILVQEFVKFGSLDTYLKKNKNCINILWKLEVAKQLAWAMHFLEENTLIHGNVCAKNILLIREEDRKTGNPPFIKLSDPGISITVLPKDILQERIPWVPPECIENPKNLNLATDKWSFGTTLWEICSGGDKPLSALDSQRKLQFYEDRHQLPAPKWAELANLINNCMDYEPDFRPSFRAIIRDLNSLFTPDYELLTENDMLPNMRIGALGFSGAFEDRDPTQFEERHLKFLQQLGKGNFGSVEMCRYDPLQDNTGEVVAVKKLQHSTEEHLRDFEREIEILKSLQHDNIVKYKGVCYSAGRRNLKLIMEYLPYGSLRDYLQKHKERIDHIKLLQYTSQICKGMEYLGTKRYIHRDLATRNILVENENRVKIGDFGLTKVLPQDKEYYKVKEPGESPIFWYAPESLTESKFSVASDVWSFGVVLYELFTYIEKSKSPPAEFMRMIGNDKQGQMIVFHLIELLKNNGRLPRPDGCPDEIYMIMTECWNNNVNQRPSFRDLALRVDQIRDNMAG

EPHB2 = EPHB2 (UniProt P29323); assay: as above
c-Src SH2 = assay: SH2 binding enrichment of the phosphorylated peptide, bacterial display (enrichment ratio); higher = better substrate or ligand; peptides without Tyr show the background
SHP2-C SH2 = assay: as above
Grb2 SH2 = Grb2 SH2 (UniProt P62993); assay: as above
Sequence of Grb2 SH2 (P62993 whole entry, looked up, the tested form may be a part): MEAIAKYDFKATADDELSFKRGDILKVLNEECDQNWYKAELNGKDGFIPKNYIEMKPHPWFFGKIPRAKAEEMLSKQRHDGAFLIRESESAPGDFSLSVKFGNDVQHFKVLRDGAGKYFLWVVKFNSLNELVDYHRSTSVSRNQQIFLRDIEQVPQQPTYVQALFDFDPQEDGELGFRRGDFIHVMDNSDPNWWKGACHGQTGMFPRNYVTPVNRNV
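Throughout, for SH2 binding enrichment of the phosphorylated peptide, bacterial display: peptide library displayed on the E. coli surface as eCPX fusions, selected cells deep-sequenced, score is each peptide's frequency after selection divided by its frequency in the input.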
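Throughout, for phosphorylation enrichment, bacterial display: 11-residue human phosphosite peptides and single-mutation variants displayed on the E. coli surface, counted by deep sequencing, each peptide's frequency after selection divided by its frequency in the unselected input library; frequency after pTyr selection over input frequency; kinase dosed for 20-30% of maximal phosphorylation in three min.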

Sequence of FGFR1 (P11362 whole entry, looked up): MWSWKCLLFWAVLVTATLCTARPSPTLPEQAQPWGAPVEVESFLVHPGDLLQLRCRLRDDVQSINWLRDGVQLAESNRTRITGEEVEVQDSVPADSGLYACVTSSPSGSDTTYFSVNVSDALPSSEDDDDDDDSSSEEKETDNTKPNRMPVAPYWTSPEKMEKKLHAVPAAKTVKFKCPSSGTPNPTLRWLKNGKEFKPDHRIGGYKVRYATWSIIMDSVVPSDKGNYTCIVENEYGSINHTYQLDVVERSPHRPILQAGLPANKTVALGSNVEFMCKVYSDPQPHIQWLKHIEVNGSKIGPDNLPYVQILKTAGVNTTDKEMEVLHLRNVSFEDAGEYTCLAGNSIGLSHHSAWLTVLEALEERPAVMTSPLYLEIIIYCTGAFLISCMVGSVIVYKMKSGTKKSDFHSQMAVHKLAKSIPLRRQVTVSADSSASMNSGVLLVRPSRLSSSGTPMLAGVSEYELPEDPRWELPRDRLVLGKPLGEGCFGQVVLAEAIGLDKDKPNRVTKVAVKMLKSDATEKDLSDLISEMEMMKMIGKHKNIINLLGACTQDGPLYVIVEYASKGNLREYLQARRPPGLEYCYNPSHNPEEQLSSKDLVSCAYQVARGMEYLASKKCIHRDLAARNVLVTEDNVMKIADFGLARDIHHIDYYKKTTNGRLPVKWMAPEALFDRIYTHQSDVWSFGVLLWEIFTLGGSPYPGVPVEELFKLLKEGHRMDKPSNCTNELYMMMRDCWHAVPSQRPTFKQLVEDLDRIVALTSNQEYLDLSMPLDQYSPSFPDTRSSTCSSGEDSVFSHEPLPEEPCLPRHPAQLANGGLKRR
Sequence of Hck (P08631 whole entry, looked up): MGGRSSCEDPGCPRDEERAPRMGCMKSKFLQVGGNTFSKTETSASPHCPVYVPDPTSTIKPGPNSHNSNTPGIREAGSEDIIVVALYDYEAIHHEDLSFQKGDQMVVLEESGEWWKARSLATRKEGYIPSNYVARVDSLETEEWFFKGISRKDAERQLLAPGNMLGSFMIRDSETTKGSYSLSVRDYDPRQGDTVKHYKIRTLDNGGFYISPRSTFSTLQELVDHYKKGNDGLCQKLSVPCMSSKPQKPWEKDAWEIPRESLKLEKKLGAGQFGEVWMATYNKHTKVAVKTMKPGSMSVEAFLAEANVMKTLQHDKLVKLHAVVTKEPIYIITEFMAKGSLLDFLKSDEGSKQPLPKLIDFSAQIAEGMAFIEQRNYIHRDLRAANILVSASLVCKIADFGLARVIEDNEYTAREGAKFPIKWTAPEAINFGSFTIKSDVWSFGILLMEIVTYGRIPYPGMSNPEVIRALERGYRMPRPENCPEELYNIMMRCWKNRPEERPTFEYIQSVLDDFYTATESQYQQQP

Sequence | phosphorylation enrichment (Hck) | phosphorylation enrichment (Fer (mouse)) | phosphorylation enrichment (AncSZ) | phosphorylation enrichment (c-Src) | phosphorylation enrichment (FGFR1) | phosphorylation enrichment (Fyn) | phosphorylation enrichment (c-Abl (mouse)) | phosphorylation enrichment (EPHB1) | phosphorylation enrichment (FGFR3) | phosphorylation enrichment (MERTK) | phosphorylation enrichment (Fes) | phosphorylation enrichment (Jak2) | phosphorylation enrichment (EPHB2) | SH2 binding enrichment (c-Src SH2) | SH2 binding enrichment (SHP2-C SH2) | SH2 binding enrichment (Grb2 SH2)
CATIHYNFMCN [TP53_Y234_T230A_YF] | 0.577 | 0.602 | 0.993 | 0.525 | 0.634 | 0.478 | 0.757 | 0.68 | 0.596 | 0.497 | 0.944 | 0.903 | 0.52 | 2.23 | 1.51 | 1.37
CDDGKYVFVVT [RPS6KA3_Y488_Y483C_YF] | 0.508 | 0.683 | 1.23 | 0.412 | 0.574 | 0.444 | 0.862 | 0.604 | 0.919 | 0.437 | 1.43 | 1.11 | 0.719 | 0.4 | 0.556 | 0.59
CEHFSYYGMKA [SLC15A2_Y60_R57H] | 1.93 | 0.812 | 1.06 | 2.37 | 5.26 | 0.866 | 0.708 | 0.52 | 3.17 | 1.54 | 0.933 | 5.02 | 0.644 | 1.24 | 0.661 | 0.961
CEHRGSLFLAI [TEK_Y897_Y897S_YF] | 0.457 | 0.533 | 1.03 | 0.457 | 0.501 | 0.427 | 0.944 | 0.55 | 0.725 | 0.422 | 1.16 | 1.04 | 0.564 | 0.567 | 0.672 | 0.989
CEQELYSQLVF [WAS_Y102_W97C_YF] | 6.76 | 10.7 | 1.59 | 5.87 | 1.66 | 6.89 | 0.987 | 1.84 | 1.79 | 6.07 | 1.44 | 1.24 | 2.2 | 0.515 | 0.553 | 0.933
CGPLLYGLVHQ [PRKCG_Y122_S119P] | 4.88 | 8.22 | 0.884 | 4.08 | 0.593 | 3.72 | 0.73 | 2.72 | 0.723 | 4.98 | 1.16 | 1.06 | 4.12 | 0.517 | 0.881 | 0.815
CGQDPYIRELG [UROS_Y19] | 0.569 | 0.534 | 1.05 | 0.433 | 0.497 | 0.535 | 0.877 | 0.674 | 0.707 | 0.427 | 1.27 | 0.971 | 0.53 | 0.563 | 0.492 | 0.731
CGTPDNIAPEI [PRKCG_Y521_Y521N] | 0.609 | 0.548 | 1.17 | 0.458 | 0.51 | 0.593 | 0.782 | 0.72 | 0.933 | 0.459 | 1.49 | 0.989 | 0.762 | 0.485 | 0.533 | 0.777
CKRQFYLFKGK [RSPO4_Y112_YF] | 0.4 | 0.403 | 0.863 | 0.377 | 0.446 | 0.431 | 0.497 | 0.385 | 0.591 | 0.489 | 1.01 | 0.745 | 0.546 | 1.07 | 1.05 | 1.28
CLNAIYQNNLT [GSR_Y158_R153C] | 1.53 | 3.44 | 0.991 | 1.41 | 0.479 | 0.995 | 0.759 | 0.622 | 0.722 | 0.563 | 0.996 | 0.744 | 0.636 | 0.807 | 0.67 | 4.11
CPYNLYAEQFS [HGD_Y40_L44F] | 3 | 2.09 | 1.46 | 6.06 | 0.877 | 3.86 | 0.72 | 4.18 | 0.973 | 3.9 | 1.16 | 0.989 | 3.18 | 0.706 | 0.645 | 0.855
CRIELYRIVES [IGFBP1_Y181_V183I] | 0.548 | 0.579 | 1.21 | 0.53 | 0.422 | 0.455 | 0.991 | 1.82 | 0.837 | 0.451 | 1.49 | 1.28 | 0.616 | 0.556 | 0.682 | 0.888
CSDPSYVKQME [CDC5L_Y464_Y459C] | 0.492 | 0.661 | 1.22 | 0.488 | 0.488 | 0.467 | 0.849 | 0.703 | 0.931 | 0.493 | 1.38 | 1.13 | 0.626 | 0.515 | 0.666 | 0.882
CSEEMYRLMLQ [RET_Y981] | 0.666 | 0.619 | 1.4 | 0.643 | 0.921 | 0.606 | 0.947 | 0.695 | 0.853 | 0.573 | 1.41 | 1.5 | 0.664 | 0.414 | 0.549 | 0.7
CSSGGYEPRGR [FUS_Y239_R234C] | 0.436 | 0.475 | 0.801 | 0.353 | 0.432 | 0.411 | 0.528 | 0.411 | 0.547 | 0.396 | 0.861 | 0.594 | 0.439 | 0.472 | 0.654 | 0.887
CTNIHYNYMCN [TP53_Y234_T231N] | 0.437 | 0.522 | 0.754 | 0.408 | 0.468 | 0.464 | 1.62 | 0.734 | 0.62 | 0.418 | 0.82 | 0.799 | 0.537 | 5.66 | 1.86 | 1.05
CTTIDYNYMCN [TP53_Y234_H233D] | 0.598 | 0.464 | 1.3 | 0.488 | 0.957 | 0.558 | 0.682 | 0.715 | 0.831 | 0.449 | 0.93 | 0.838 | 0.643 | 1.34 | 1 | 0.768

Sequence | phosphorylation enrichment (Hck) | phosphorylation enrichment (Fer (mouse)) | phosphorylation enrichment (AncSZ) | phosphorylation enrichment (c-Src) | phosphorylation enrichment (FGFR1) | phosphorylation enrichment (Fyn) | phosphorylation enrichment (c-Abl (mouse)) | phosphorylation enrichment (EPHB1) | phosphorylation enrichment (FGFR3) | phosphorylation enrichment (MERTK) | phosphorylation enrichment (Fes) | phosphorylation enrichment (Jak2) | phosphorylation enrichment (EPHB2) | SH2 binding enrichment (c-Src SH2) | SH2 binding enrichment (SHP2-C SH2) | SH2 binding enrichment (Grb2 SH2)
CTTIHHNFMCN [TP53_Y234_Y234H_YF] | 0.436 | 0.483 | 0.713 | 0.362 | 0.525 | 0.453 | 0.478 | 0.482 | 0.641 | 0.377 | 0.844 | 0.606 | 0.51 | 1.36 | 0.933 | 1.36
CTTIHYDFMCN [TP53_Y234_N235D_YF] | 0.656 | 1.05 | 1.16 | 0.545 | 0.544 | 0.644 | 0.704 | 0.681 | 0.764 | 0.49 | 1.03 | 0.873 | 0.514 | 6.1 | 2.73 | 1.2
CTTIHYFFMCN [TP53_Y234_N235Y_YF] | 0.37 | 0.384 | 0.966 | 0.279 | 0.413 | 0.424 | 0.662 | 0.515 | 0.635 | 0.309 | 0.982 | 1.07 | 0.534 | 0.553 | 0.883 | 0.894
CTTIHYNFLCN [TP53_Y234_M237L_YF] | 0.469 | 0.554 | 0.873 | 0.499 | 0.556 | 0.531 | 0.585 | 0.54 | 0.674 | 0.435 | 0.941 | 0.623 | 0.576 | 2.28 | 2.12 | 1.93
CTTIHYNYMWN [TP53_Y234_C238W] | 0.544 | 1.77 | 1.21 | 0.496 | 1.21 | 0.569 | 0.824 | 1.12 | 0.976 | 1.82 | 1.32 | 0.966 | 0.746 | 0.874 | 1.18 | 1.11
CTTNHYNYMCN [TP53_Y234_I232N] | 0.415 | 0.489 | 0.725 | 0.373 | 0.479 | 0.382 | 0.495 | 0.682 | 0.526 | 0.398 | 0.712 | 0.593 | 0.483 | 11 | 2.42 | 0.802
DDDPEDRKFLE [UPF3B_Y160_Y160D] | 0.594 | 0.56 | 1.12 | 0.503 | 0.51 | 0.56 | 0.867 | 0.586 | 0.641 | 0.541 | 1.24 | 1.17 | 0.501 | 0.579 | 0.613 | 0.938
DDFDLYGGEKF [PTPN11_Y66_Y62D_YF] | 3.11 | 1.72 | 1.28 | 2.14 | 0.585 | 2.27 | 0.731 | 0.639 | 0.727 | 0.475 | 1.38 | 1.2 | 0.659 | 0.426 | 0.545 | 0.569
DEGVNYFMSKG [FBXO8_Y156] | 0.456 | 0.402 | 1.1 | 0.388 | 0.862 | 0.422 | 0.705 | 0.457 | 0.926 | 0.39 | 0.984 | 0.996 | 0.685 | 0.442 | 0.544 | 0.674
DFLSSYSAVKQ [OAT_Y85_N89K] | 0.429 | 0.746 | 1.5 | 0.444 | 0.491 | 0.466 | 0.46 | 0.516 | 0.445 | 0.273 | 1.03 | 0.639 | 0.502 | 1.21 | 4.04 | 1.05
DGTESYHTVSS [PLK1_Y462_L463H] | 0.436 | 0.348 | 0.569 | 0.423 | 0.558 | 0.433 | 0.552 | 0.342 | 0.872 | 0.299 | 0.682 | 0.52 | 0.514 | 1.61 | 0.755 | 0.769
DGYIDYAEFAK [MCFD2_Y138] | 0.657 | 0.407 | 1.13 | 0.912 | 1.31 | 0.635 | 0.674 | 0.639 | 1 | 0.455 | 1 | 0.917 | 0.579 | 0.661 | 0.47 | 0.733
DHYNQYEQQKM [CHD7_Y75] | 0.434 | 0.451 | 0.844 | 0.478 | 0.438 | 0.639 | 0.445 | 0.444 | 0.524 | 0.359 | 0.728 | 0.782 | 0.402 | 0.472 | 0.824 | 0.56
DIDKIYVRTGI [PIK3CA_Y355] | 0.529 | 0.525 | 0.975 | 0.528 | 0.518 | 0.458 | 0.713 | 0.697 | 0.772 | 0.33 | 0.934 | 0.878 | 0.593 | 0.539 | 0.757 | 0.864
DKEKWYPLGTS [PIK3C2G_Y1438_N1442T] | 0.44 | 0.55 | 0.821 | 0.486 | 0.409 | 0.505 | 0.591 | 0.544 | 0.642 | 0.458 | 0.931 | 0.765 | 0.496 | 0.403 | 0.513 | 0.852
DKITQYVEEVK [STX2_Y49] | 0.421 | 0.479 | 1.11 | 0.425 | 0.552 | 0.509 | 0.698 | 0.507 | 0.78 | 0.505 | 1.23 | 0.876 | 0.581 | 0.555 | 0.752 | 0.918
